Experimental data taken from the supplement of paper PMC10567573.

B1: P2RY14 (parent)
chain: KKIFKSHLKSSRNSTSVKKKSSRN
B2: PPEF2 (parent)
chain: DHSGFISLDEFRQTWKLFSSHMNI

Variants of: B1
Experiment: protein stability index of a GFP-peptide fusion (GPS, HEK-293T) (PSI 1-6); higher = more stable
Details: c terminus: a fixed tail appended
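Further: lentivirally expressed fusions sorted by FACS into six bins by GFP to DsRed ratio, PSI derived from sequencing read proportions per bin multiplied by bin number.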

Protein stability index of substitutions, site by site:
K2: T 4.3; R 3.88
I3: R 4.44; P 4.38; C 4.27; Y 4.39; Q 4.14; E 5.07; N 4.63; K 4.18; H 4.34; D 4.95; L 4.23; S 4.6; G 4.28; T 4.66; M 4.77; A 4.18; F 3.91; V 4.04; W 3.79
N13: E 3.55; D 3.68; R 4.38; K 3.95; Y 3.6; L 3.3; Q 4.2; H 3.52; C 3.74; V 4.22; G 4.11; M 3.64; F 3.77; A 4.12; I 4.15; W 3.41; T 4.5; P 3.45; S 4.89
S10: A 4.08; I 3.59; V 3.81; R 4.18; K 4.15; E 4; F 3.38; N 4.33; Q 3.83; M 4.01; P 4.24; H 4.14; L 4.02; W 3.46; D 4.41; T 4.17; C 4.03; G 3.81; Y 3.54
K9: Q 4.04; L 4.05; F 3.57; S 3.87; G 4.01; R 4.27; M 4; V 3.39; A 4.07; E 4.51; Y 3.67; I 3.7; C 4.37; H 4.41; D 4.05; W 3.21; P 4.47; T 3.98; N 4.5
S11: G 4.26; A 3.93; E 4.35; Y 3.37; I 3.98; F 3.69; P 4.3; C 3.93; R 4.44; N 3.96; H 4.67; V 4.31; T 4.22; K 3.89; D 4.33; W 3.36; M 3.62; L 4.12; Q 4.31
S6: P 3.69; Y 3.34; E 4.36; V 3.79; A 3.68; F 3.34; G 4.18; W 3.26; L 3.18; M 3.82; N 4.57; R 4.49; I 3.5; C 4.06; K 4.33; Q 4.07; T 4.11; H 3.9; D 4.62
T15: G 4.31; F 3.52; Q 4.09; P 4.28; E 4.35; M 4.01; N 4.45; V 3.55; S 4.16; C 3.63; I 4.04; L 3.98; D 4.28; R 4.05; K 3.84; A 4.27; W 3.46; Y 3.6; H 4.01
H7: G 4.27; E 4.41; L 3.7; K 4.39; P 3.74; T 4.41; W 3.3; M 3.79; Q 3.67; C 4.05; N 4; V 3.93; S 4.15; D 4.36; A 3.79; R 4.28; Y 3.38; I 3.72; F 3.76

Variants of: B2
Experiment: as above
Details: c terminus: a fixed tail appended

Protein stability index, by site and new letter:
I24: V 2.01; T 1.89; N 1.8; R 1.63; H 1.7; P 1.87; M 2.04; K 1.79; L 1.9; Q 1.78; W 2.35; Y 2.04; S 1.58
